Reference: the nanobody polyreactivity screen of Harvey et al. (2022)

Assay: yeast display, Sf9 membrane polyspecificity reagent, FACS + sequencing; frameworks hold sequencing errors
Method in brief: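 A nanobody's polyreactivity label depends on the gate it was sorted from. Yeast display cells were stained with 10% biotinylated, detergent-solubilized Sf9 membrane reagent for 1 hour at 4 °C, enriched on streptavidin microbeads and sorted by FACS. The low and high (top ~1%) gates were set on anti-HA fluorescence for expression and streptavidin fluorescence for reagent binding.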

Sequence	polyreactivity (PSR sort gate)
QVQLVESGGGLVQAGGSLRLSCAASGIIFPAYAMGWYRQEPGKDRELVAAISKRGGSTYYADSVKGRFTISRDNAKNTVYLQMNSLKPEDTAVYYCNVLLTQGATVGEYGYWGQGTQVTVSS	high polyreactivity
QVQLVESGGGLVQAGGSLRLSCAASGSIFYRYTMGWYRQAPGKERELVAVISRRGGSTYYADSVKGRFTISRDNAKNTVYLQMNSLKPEDTAVYYCAVRQYRTSVRQGNTLWDDYWGQGTQVTVSS	high polyreactivity
QDQLVESGGGIVQAGGSLRLSCAASGFTFFANTMGWSRQAPGKERELVAVISSTVGYTYYADSVKGRFTISRDNAKNTVYLQMNSLKPEDTAVYYCAAKSIYDGFPYYLFDYWGQGSQVTVSS	high polyreactivity
QVQLVESGGGLVQAGGSLRLSCAASGIIFSPYAMGWYRQAPGNERELVAAISYSGGSTYYADSVKGRFTISRDNAKNTVYLQMNSLKPEDTAVYYCAVVYSYYLAVLGYWDYDYWGQGTQVTVSS	low polyreactivity
QVQLVESGGGLVQAGGSLRLSCAASGIIFYNKAMGWYRQAPGKERELVAAITWSDGSTYYADSVKGRFTISRDNAKTTVYLQMNSMKPEDTAVYYCARRSGDERRDGDYWGQGTQVTVSS	low polyreactivity
QVQVVESGGGLVQAVGSLRLSCAASGRIFRGNAMGWDRQAPRKERELVAAISRRSGSTYYADSVKGRFTISRDNAKNTVYLQMNSLIPEDTAVYYCAATSSLGDFSYDSWGQGTQVTESS	high polyreactivity
QVQLEESGGRLVQAGGSLRLSCAASGGIFADYAMGWDRPAPGKERELVADISARGGSTYYADSVKGRFTISRDNAKNTVYLQMNSLKPEDTAVYYCAADALGYDYYYWGQGTQVTVSS	low polyreactivity
QVQLVESGGGLVQAGGSLRLSCDASGITQTVYAMGWYRQSPGKERELVAGIDWVGDTYADSVKGRFTISRDNAKNTVYLQMNSLKPEDTAVYYCAADNYSQGVPYDYWGQGSQVTVSS	low polyreactivity
QDQLVESGGGLVQAGGSLRLSCAASGLTFQSYAIGWYRQAPGKERELVATISNGSSTYYADSVKGRFTISRDNAKNTVYLQMNSQKPEDTAVYYCAADGYLHAGHWRTYGYYYWGHGTQVTVSS	low polyreactivity
QVQLVESGGGLVQAGGSLRLSCAASGSTFYYYAMGWYRQAPGKEMELVAAISGSGGNTYYADSVKGRFTISRDNAKNTVYLQMNSLKPEDTAVYYCAADYGYPLGVSWYGYGYWGQGTQVTVSS	low polyreactivity
QVQLVESGGGLVQAGGSLRLSCAASGITFKYYTMGWYRQAPGKERELVAAISRSGGSTYYADSVKGRFTISRDNAKNTVYLLMNSLKPEDTAVYYCAGERGAYRGVTFTYGYWGQGTQVTVSS	high polyreactivity
QVQLVESGGGLVQAGGSLRLSCAASGRIFTRYAMGWSRQAPGKERELVAAISSGGSTYYADSVKGRYTISRDKAKNTVYLQMNSLKPEDTAVYYCAAGTWWWYKFNYWGQGTQVTVSS	high polyreactivity
QVQLVESGGGLVQAGGSLRLSCAASGSIFRSYVMGWSRQAPGKERELVAAISRRGVRTFYADSVKGRFTISRDNAKNTVYLQMNSLKPEDTAVYYCAAQPYKGTGYDYWGQGTQVTVSS	high polyreactivity
QVQLVESGGGLVQAGGSLRLSCAASGRTFRANAMGWYRQAPGKERELVAAISQRGGNTYYADSVKGRFTISRDKAKNTVYIQMNSLKPEDTAVYYCAADITTYRRGRYEYEYWGQGTQVTVSS	high polyreactivity
QVQLVESGGGLVKAGAILRLSCPASGSTFQSYAKGWSRQEPGKESELVAAISSGGITYYADSVKGRFTISRDNAKNTVYFQMNSLKPEDTAVYYCAKVPTYLISNRYSRYDYWGQGTQVTVSS	low polyreactivity
QVQLVESGGGLVQAGGSLRLSCAASGSIFQWYAMGWYRQAPGKERELVAAISFNGGITYYADSVKGRFTISRDIAKNTVYLQMNSLKPEDTAVYYCATLPGWGYAAYEYWGQGTQVTVSS	low polyreactivity
QVQLVESGGGLVQAGGSLRLSCAASGLIFYDNMGWYRQAPGKERELVAAISSSGGSTSYADSVKGRFTISRDNAKNTVYLQMNSLKPEDTAVYFCAADSYPAYLGFVGFDYWGQGTQVTVSS	low polyreactivity
QVQLVESGGGLVQAGGSLRLSCAASGRISVFYTRGWYRQAPGKERELVAVIRTSGGRTNYADSVKGRFTISRDNAKNTVYLQMNSLKPEDTAVYYCAARVVRYGYKYYYWGQGTQVTVSS	low polyreactivity
QVQLVESGGGLVQAGGSLRLSCAASGRTFSGYAMGWYRQAPGKERELVAAIRWSGGSTYYADSVKGRFTISRDNAKNTVYLQMNSLKPEDTAVYYCATRDYYYRYGYWGQGTQVTVSS	high polyreactivity
QVQLVESGGGLVQAGGRLRLSCAASGRTFYRNAMGWYRQAPGKERELVAGISVRGGRTYYADSVKGRFTISRDNAKNTVYLQMNSLKPEDTAVYYCNKRLSSSLSLKYDYWGQGTQVTVSS	high polyreactivity
QVQLVESGGGLVHAGGSLRLSCAASGRIFPSYAMGWYRQAPGKERELVAAISYSGASTYYADSVKGRFTISRDNAKNTVYLQMNSLKPEDTAVYYCATDHESVRVLVSSTSDYDYWGQGTQVTVSS	low polyreactivity
QVQLVESGGGLVQAGGSLRLSCAASGSTFINYAKGWYRHAPGKERELVAAYADSVKGRFSISRDNAKNTVYLQMNSLKPEDTAVYYCAARGTIYVLGVPARPVPDGDYWGQGTQVTVSS	low polyreactivity

Sequence	polyreactivity (PSR sort gate)
QVQLVESGGGLVQAGGSLRLSCAASGSIFYQYAMGWYRQAPGKEREMLAAIRYSGSSTYYADSVKGRFTISRDNAKNTVYLQMNSLKPEDTEVYYCGKTLRRRRGDRRYRVIEMDHWGQGTQVTVSS	low polyreactivity
QVQLVESGGGLVQAGGSLRLSCAASGRIFYYYAMGWYRQAPGKERELVADITWSGGSTYYADSVKGRFTISRDNAKNTVYLLRNSLKPEDTAVYYCNAVSFNYLLEYDYWGQGTQVTVSS	high polyreactivity
QVQLEESGGGLFQAGGSLRLICAASGRICDVNAMGWYRQAPGKERELVAAISWSGGITYYADSVKGRFTISRDNAKNTVYLQMNSLKPEDTAVYYCAADKYQGYTFYQGYPGGGGYWGQGTQVTVSS	low polyreactivity
QVHLVESGGGLVQAGGSLRLSCAASGLTLNSYVMGWYRQAPGKERELVARITSGGRTNYADSVKGRFTISRDNAKNTVYLQMNSVKPEDTAVYYCAVRSLSYARGGRSDFKVGYWGQGTQVTVSS	low polyreactivity
QVQLVESGGGLVQAGGSLRLSCAASGRIFSRYVRGWYRQAPGKEREFVASITWSGSSTYYADSVKGRFTISRDNAKNTVYLQMNSLKPEDTAVYYCAALGLLSPSPWGTHISEYDSWGQGTQVTVSS	low polyreactivity
QVQLVESGGGLVQAGGSLRLSCAASGRTFVNNAMGWYRQAPGKERELVAAITRSGGRTYYADSVKGRFTISRDNAKNTVYLQMNSLKPEDTAVYYCATANVRLRHDDYWGQGTQVTVSS	high polyreactivity
QVQLVESAGGLVQAGGSLRLSCAASGSTFPTYAMGWYRQSPGKERELVAAIDWSDGSITYYADSVKGRFTISRDNAKNTVYLQMNSMKPEDTAVYYCAKDNSQYGWGYDYWGQGTQVTVSS	low polyreactivity
QVQLQESGGGLVQAGGSLRLSCAASGSIFYWPWMGWYRQAPGREREFVATITTGSNTYYADIMKGHLTISRDNARNTVYLQMKSLKPEDTAVYYCAVVGDGEIEHRYWGQGTQVTVSS	high polyreactivity
QVQLVESGGGLVQAGGSLRLSCAASGRTFSKYAMGWYRQAPGKERELVAAITSGGGTYYADSVKGRFTISRDNAKNTVYLQMNSLKPEDTAVYYCAVSVTTVSTYDYWGQGTQVTVSS	low polyreactivity
QVQLVESGGGLVQAGGSLRLSCAASGGTFVSNAMGWYRHAPGKERELVAAITTGGTTYADSVKGRFTISRDNAKNSVYLQMKSLKPEDSAVYYCAADIYLLILGRSILQFDYWGQGTQVTVSS	low polyreactivity
QVQLVESVGGLVQAGGSLRLSCAASGSIFTENAMGWYRQAPGKERELVATITITGSTNYADSVKGRFTISRDNAKNTFYLQMNSLKPEDTEVYYCNADLYIAFSASAYDYWGQGTQVTVSS	low polyreactivity
QVQLEESGGGLVQAGGSLRLSCAASGSTFTPNAMGWYRQAPGKEREFVAGIDWNDGSTYYADSVKGRFTISRDNAKNTVYLQMNSLQPEDTEVYYCNAQWVSWWSLYDYWGQGTQVTVSS	high polyreactivity
QVQLVESGGGLVQAGGSLRLSCAASGSTIGFYTMGWYRQAPGKERELVATISYSGGDTYYADSVKGRFTISRDNAKNTVYLQMNSLKPEDTAVYYCAADLGDYVTTYSWLDSWGQGTQVTVSS	low polyreactivity
QVQLVESGGGLVQAGGSLRLSCAASGFILDNYAMGWYRQAPGKERELVAAISGSGGSTYYADSVKGRFTISRDNAKNTVYLQMNSLKPEDTAVYYCAAYSIHYGYDAYDYWGQGTQVTVSS	high polyreactivity
QVQLVESGGGLVQAGGSLRLSCAASGSISGLNAMGWYRQAPGKERELVAAISRSGGRTYYADSVKGRFTISRDNAKNTVYLQMNSLKPEDTAVYYCAAVTTWRMDYWGQGTQVTVSS	high polyreactivity
QVQLVESGGGLVQAGGSLGLSCAASGFIFYAYVMGRYRQAPGKERELVAAISRNGGSTYYADSVKGRFTISRDNAKKSVYLQMNSLKPEDTAVYYCAALSYYRYSQEDDYWGQGTQVTVSS	high polyreactivity
QVQLVESGGGLVQAGGSLRLSCAASGYTFGTYDMGWYRQAPGKERELVAAISIGGSTNYADSVKGRFTISRDNAKNTVYLQMNSLKREDTAVYYCAAEVNVGTLLLSVIVEDGDYWGQGTQVTVSS	low polyreactivity
QVQLVESGGGLVQAGGSLRLSCAASGRIFSRYAMGWYRQAPGKERELVAAISRAASTNYADSVKGRFTISRDNAKNTVYLQMNSLKPEDTAVYYCNKRLYGYYGRYDYWGQGTQVTVSS	low polyreactivity
HVQLVESGGGLVQAGGSLRLSCAASGRTFPYYAMGWYRQAPGKERELVAGITSNAGSTYYADSVKGRFTISRDNAKNTVYLLMNSLKPEDTAVYYCAKTKAGRWTTFKFGYWGQGTQVTVSS	high polyreactivity
QVQLVESGGGLVQAGGSLRLSCAASGFIFQYYAMGWYRQAPGKERELVAAITSGGTTYYADSVKGRFTISRDNAKNTVYLQMNSLKPEDTAVYYCAAVFVNFYARFDYWGQGTQVTVSS	low polyreactivity
QVQLVESGGGLVQAGGSLRLSCAASGSIFSGNAMGWYRQAPGKERELVASINRSGGSTYYADSVKGRFTISRDNAKNTVYLQMNSLKTEDTAVYYCAARRVWLAGYDSWGQGTQVTVSS	low polyreactivity
